Test results taken from article PMC8457831, “Structural basis for diguanylate cyclase activation by its binding partner in Pseudomonas aeruginosa” (eLife, 2021).

What was measured:
[1] = molecular target: T1, SiaD (Pseudomonas aeruginosa, UniProt A0A069QEY1); test: X-ray crystal structure of SiaC–SiaD–GpCpp complex, […] Å; type: binding; set-up: gene pleD_6; full-length SiaD (redefined start at the upstream ATG codon); with SiaC (2:4 SiaD–SiaC complex)
[2] = molecular target: SiaD (full length, sumo-His tag removed) (Pseudomonas aeruginosa); test: SEC-MALS; SiaC-SiaD complexes (wild type and SiaD motif mutants) at 2 mg/ml, WTC-030S5 column, 20 mM HEPES pH 7.0, 150 mM NaCl, DTT
[3] = molecular target: SiaD (full length, sumo-His tag removed) (Pseudomonas aeruginosa); test: crystal structure; SiaC-SiaD complex (10 mg/ml) with GpCpp 1:5, sitting drops at 18°C, space group C222(1), 2.65 Å
[4] = molecular target: SiaD (full length, sumo-His tag removed) (Pseudomonas aeruginosa); test: native gel or EMSA; blue native PAGE, 8% gel, SiaD (25 ug) alone or mixed with excess SiaC (35 ug), 50 min at 15 mA, Coomassie stain
[5] = molecular target: SiaD (full length, sumo-His tag removed) (Pseudomonas aeruginosa); test: SEC-MALS; single proteins: SiaC at 1.5 mg/ml, SiaD at 8 mg/ml, WTC-030S5 column, 20 mM HEPES pH 7.0, 150 mM NaCl, DTT
[6] = molecular target: SiaD (full length, sumo-His tag removed) (Pseudomonas aeruginosa); test: SAXS; synchrotron solution SAXS (SEC-SAXS for SiaD), 20 mM HEPES pH 8.0, 150 mM NaCl, 1 mM DTT, 25°C; 8 mg/ml SiaD or 11 mg/ml SiaC-SiaD complex
[7] = molecular target: SiaD (full length, sumo-His tag removed) (Pseudomonas aeruginosa); test: SEC-MALS; SiaD alone at 4 mg/ml, WTC-030S5 column, 20 mM HEPES pH 7.0, 150 mM NaCl, 1 mM DTT
[8] = molecular target: T1, SiaD; test: HPLC DGC activity assay with […] c-di-GMP; thermal shift (+[…] ℃ at […]); SEC; inhibition abolished by R201A; type: biochemical; set-up: gene pleD_6; full-length SiaD, alone and in the SiaC–SiaD complex
[9] = molecular target: T1, SiaD; test: ITC (also HPLC assay of c-di-GMP production from GTP); type: binding; set-up: gene pleD_6; SiaD alone, full length
[10] = molecular target: SiaD^S82A-Q86A (Pseudomonas aeruginosa); test: SEC-MALS; SiaC-SiaD complexes (wild type and SiaD motif mutants) at 2 mg/ml, WTC-030S5 column, 20 mM HEPES pH 7.0, 150 mM NaCl, DTT
[11] = molecular target: SiaD^S50A-Q54A (Pseudomonas aeruginosa); test: as above
[12] = molecular target: SiaD (full length, sumo-His tag removed) (Pseudomonas aeruginosa); test: ITC; SiaD in the cell, SiaC or SiaC mutant in the syringe, 25°C, MicroCal iTC200 or PEAQ-ITC
[13] = molecular target: SiaD (full length, sumo-His tag removed) (Pseudomonas aeruginosa); test: SPR; Biacore T200, protein amine-coupled to a CM5 chip (about 5000 RU), 25°C; running buffer 10 mM Tris-HCl, 150 mM NaCl, 0.05% P-20, pH 7.5; SiaC or SiaC^M3 at varying concentrations over SiaD; fits to a 2:1 interaction

Nc1nc2c(ncn2[C@@H]2O[C@H](COP(=O)(O)CP(=O)(O)OP(=O)(O)O)[C@@H](O)[C@H]2O)c(=O)[nH]1 [GpCpp]
X-ray crystal structure of SiaC-SiaD-GpCpp complex, 2.65 Å [1]: a non-hydrolyzable GTP analog GpCpp molecule was observed to bind in the active site of SiaD-A

SiaD (full length, sumo-His tag removed) (enzyme)
stoichiometry N [2]: 2 | stoichiometry N [3]: 2 | stoichiometry N [4]: 5 | stoichiometry N [5]: 5 | stoichiometry N [6]: 5 | stoichiometry N [7]: 5

Nc1nc2c(ncn2[C@@H]2O[C@@H]3CO[P@](=O)(O)O[C@H]4[C@@H](O)[C@H](n5cnc6c(=O)[nH]c(N)nc65)O[C@@H]4CO[P@](=O)(O)O[C@H]3[C@H]2O)c(=O)[nH]1 [c-di-GMP]
HPLC DGC activity assay with 50 μM c-di-GMP; thermal shift (+7.1 °C at 25 μM); S [8]: the enzyme activity of SiaD was inhibited by c-di-GMP more extensively than the SiaC–SiaD complex

Nc1nc2c(ncn2[C@@H]2O[C@H](COP(=O)(O)OP(=O)(O)OP(=O)(O)O)[C@@H](O)[C@H]2O)c(=O)[nH]1 [GTP]
Kd [9]: 12 µM

B1: SiaC (sumo-His tag removed) (natural protein)
chain: MSDLHIPGTQSTPAIQGDWQAGRLSMQGDSYPENSYELFGQVIDWVERFLADGQRPLELDLRLLYLNTSSIKAMMDILDLLEEAHQGGRPVSLRWHYDRRNERVAELAEEFREDCSFPFAIQAHDE
stoichiometry N (SiaC per SiaD (2:4 SiaD:SiaC)) [10]: 2 | stoichiometry N (SiaC per SiaD (2:4 SiaD:SiaC)) [11]: 2 | Kd [12]: 0.0498 µM

B2: SiaC-His (natural protein)
chain: MSDLHIPGTQSTPAIQGDWQAGRLSMQGDSYPENSYELFGQVIDWVERFLADGQRPLELDLRLLYLNTSSIKAMMDILDLLEEAHQGGRPVSLRWHYDRRNERVAELAEEFREDCSFPFAIQAHDE
Kd [13]: 0.0118 µM
